Source: patent publication US20020131970A1 (Scripps Research, published 2002)
Blank lines part the entries; values can stand above or below the molecule they belong to.

Experiments:
[1] = target: recombinant ICAM-1 on the surface of transfected fibroblast-like (COS) cells of Example 4 (human) (UniProt P05362); assay: 125I-D30 on ICAM-1 transfected cells, with MnCl2, no inhibitor
[2] = target: recombinant ICAM-1 on the surface of transfected fibroblast-like (COS) cells of Example 4 (human) (UniProt P05362); assay: 125I-D30 on ICAM-1 transfected cells, with CaCl2, no inhibitor
[3] = target: intercellular adhesion molecule 1 (ICAM-1), the RGD-independent fibrinogen receptor, native, on the surface of cells (HUVEC, JY lymphocytes) (human) (UniProt P05362); assay: 125I-D30 at 10 µg/ml on HUVEC monolayers
intercellular adhesion molecule 1 (ICAM-1), the RGD-independent fibrinogen receptor, native, on the surface of cells (HUVEC, JY lymphocytes) (human), sequence (P05362 28-532): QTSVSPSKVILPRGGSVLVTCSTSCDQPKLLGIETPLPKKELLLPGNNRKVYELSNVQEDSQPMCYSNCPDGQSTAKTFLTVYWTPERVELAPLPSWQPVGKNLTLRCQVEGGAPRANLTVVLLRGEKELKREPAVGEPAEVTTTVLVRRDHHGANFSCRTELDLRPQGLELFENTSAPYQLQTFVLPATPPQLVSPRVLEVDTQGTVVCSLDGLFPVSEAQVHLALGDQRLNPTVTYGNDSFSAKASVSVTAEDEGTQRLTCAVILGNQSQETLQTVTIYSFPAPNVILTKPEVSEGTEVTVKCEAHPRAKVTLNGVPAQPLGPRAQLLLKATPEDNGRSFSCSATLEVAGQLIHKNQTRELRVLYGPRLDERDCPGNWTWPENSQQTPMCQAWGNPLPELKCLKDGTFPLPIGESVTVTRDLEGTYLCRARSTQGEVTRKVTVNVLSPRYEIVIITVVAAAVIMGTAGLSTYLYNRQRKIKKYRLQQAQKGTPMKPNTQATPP

[4] = target: T1, intercellular adhesion molecule 1 (ICAM-1), the RGD-independent fibrinogen receptor, native, on the surface … (human, UniProt P05362 28-532); assay: adhesion of 51Cr-labelled ICAM-1+ JY lymphocytes to peptide-coated wells
T1 construct: whole, on cells; assays on HUVEC monolayers are written against this molecule; also called ECR; endothelial cell receptor
T1 sequence (P05362 28-532): as above

[5] = target: T1, intercellular adhesion molecule 1 …; assay: adhesion of 51Cr-labelled ICAM-1+ JY lymphocytes to wells coated with 1-100 µg/ml peptide
Description: Serum-free suspensions of JY lymphocytes were labeled with 0.5 mCi ⁵¹Cr (Na₂CrO₄, specific activity 487.4 mCi/mg, E. I., DuPont de Nemours, Wilmington, Del.) for 2 h at 37° C., with a final incorporation of 0.2-4 cpm/cell (Languino, et al., supra). Aliquots of ⁵¹Cr-labeled JY lymphocytes at 1×10⁶/ml were added to peptide-coated wells for 45 min at 37° C., washed, solubilized in 20% SDS, and radioactivity associated under the various conditions was determined in a scintillation beta-counter. The number of attached cells was quantitated by dividing the cpm harvested by the cpm/cell. Data are the mean ± S.D. of two independent experiments.
The specific binding of radiolabelled ICAM-1⁺ JY lymphocytes to increasing concentrations of γ3 was measured to characterize the ICAM-1 binding site. The number of attached cells is plotted on the Y-axis against peptide concentration (μg/ml) plotted on the X-axis.

recombinant ICAM-1 on the surface of transfected fibroblast-like (COS) cells of Example 4 (human), sequence (P05362 28-532): as above

- cpm bound [1]: 7500 cpm
- cpm bound [2]: 3000 cpm
- cpm bound [3]: 60000 cpm
Molecule: D30 fragment of fibrinogen (30 kD plasmin digestion product of fragment D) (from UniProt P02671 155-225; P02675 164-250)

- binding result [4]: no binding (tested: 1-100 µg/ml coating)
B1: polypeptide L10, fibrinogen γ chain residues 402-411 (peptide)
peptide: LGGAKQAGDV
notes: also called control peptide L10; irrelevant polypeptide L10

- binding result [5]: binds
B2: polypeptide γ3, fibrinogen γ chain residues 117-133 (peptide)
peptide: NNQKIVNLKEKVAQLEA
notes: Coated on plates in the JY adhesion assays; also called γ3 polypeptide; unlabeled γ3 peptide
